T1: human FcγRIIB (NM_004001) expressed on cells (human, UniProt P31994 43-310)
T1 construct: Transiently expressed on Expi293F cells; also called Expi293F FcγRIIB; HEK293F cells expressing FcγRIIB
T1 sequence: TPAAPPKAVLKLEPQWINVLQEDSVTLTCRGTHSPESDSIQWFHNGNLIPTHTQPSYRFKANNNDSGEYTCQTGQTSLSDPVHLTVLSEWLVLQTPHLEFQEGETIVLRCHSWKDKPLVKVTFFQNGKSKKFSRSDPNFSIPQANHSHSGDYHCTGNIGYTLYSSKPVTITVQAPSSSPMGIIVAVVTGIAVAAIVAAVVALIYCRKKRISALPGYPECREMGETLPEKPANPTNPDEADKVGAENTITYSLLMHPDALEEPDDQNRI

T2: human OX40 expressed on HEK-Blue: OX40 cells (human, UniProt P43489 29-277)
T2 construct: also called CD134
T2 sequence: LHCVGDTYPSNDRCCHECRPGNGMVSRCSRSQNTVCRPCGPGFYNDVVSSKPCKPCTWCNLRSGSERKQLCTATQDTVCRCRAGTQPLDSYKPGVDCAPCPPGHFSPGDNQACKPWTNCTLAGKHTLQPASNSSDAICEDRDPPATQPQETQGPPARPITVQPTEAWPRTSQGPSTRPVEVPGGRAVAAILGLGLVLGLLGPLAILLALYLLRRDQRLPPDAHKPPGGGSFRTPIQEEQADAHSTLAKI

T3: human FcγRIIA (NM_021642) expressed on cells (human, UniProt P12318 36-317)
T3 sequence: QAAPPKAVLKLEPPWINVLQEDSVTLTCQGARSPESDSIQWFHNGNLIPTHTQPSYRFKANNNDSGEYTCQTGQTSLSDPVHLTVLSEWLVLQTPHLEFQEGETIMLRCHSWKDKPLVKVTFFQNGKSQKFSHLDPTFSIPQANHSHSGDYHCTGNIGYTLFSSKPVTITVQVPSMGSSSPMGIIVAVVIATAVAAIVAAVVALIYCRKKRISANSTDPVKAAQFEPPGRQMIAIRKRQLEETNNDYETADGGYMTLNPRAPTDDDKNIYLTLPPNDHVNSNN

T4: FcγRIIA protein (human, UniProt P12318 36-217, biotinylated (SureLINK Biotin Kit) in the ELISA of Example 1)
T4 sequence: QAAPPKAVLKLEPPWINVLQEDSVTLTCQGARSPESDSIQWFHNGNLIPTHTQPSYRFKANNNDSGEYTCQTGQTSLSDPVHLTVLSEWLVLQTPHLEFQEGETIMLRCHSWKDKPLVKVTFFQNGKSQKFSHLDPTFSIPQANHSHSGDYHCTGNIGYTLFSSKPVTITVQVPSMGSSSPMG

T5: FcγRIIB protein (human, UniProt P31994 43-217, biotinylated (SureLINK Biotin Kit) in the ELISA of Example 1)
T5 sequence: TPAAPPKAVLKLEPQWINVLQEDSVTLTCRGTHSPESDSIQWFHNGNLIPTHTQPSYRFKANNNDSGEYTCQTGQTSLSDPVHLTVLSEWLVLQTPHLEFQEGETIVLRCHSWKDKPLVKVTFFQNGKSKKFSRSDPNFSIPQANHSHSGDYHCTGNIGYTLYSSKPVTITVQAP

B1: OX40SF2IgG2sigma_R2BS29_HC-N (bispecific antibody)
heavy: LPAPKNLVVSRVTEDSARLSWTAPDAAFDSFPIYYWEYRVGGEAIVLTVPGSERSYDLTGLKPGTEYFVYINGVKGGEESRPLSAIFTTGGGGSGGGGSGGGGSGGGGSQVQLVQSGAEVKKPGSSVKVSCKASGYTFKDYTMHWVRQAPGQGLEWIGGIYPNNGGSTYNQNFKDRVTLTADKSTSTAYMELSSLRSEDTAVYYCARMGYHGPHLDFDVWGQGTTVTVSSASTKGPSVFPLAPCSRSTSESTAALGCLVKDYFPEPVTVSWNSGALTSGVHTFPAVLQSSGLYSLSSVVTVPSSNFGTQTYTCNVDHKPSNTKVDKTVERKCCVECPPCPAPPAAASSVFLFPPKPKDTLMISRTPEVTCVVVDVSAEDPEVQFNWYVDGVEVHNAKTKPREEQFNSTFRVVSVLTVLHQDWLNGKEYKCKVSNKGLPSSIEKTISKTKGQPREPQVYTLPPSREEMTKNQVSLTCLVKGFYPSDIAVEWESNGQPENNYKTTPPMLDSDGSFFLYSKLTVDKSRWQQGNVFSCSVMHEALHNHYTQKSLSLSPGK
light: DIQMTQSPSSLSASVGDRVTITCKASQDVGAAVAWYQQKPGKAPKLLIYWASTRHTGVPSRFSGSGSGTDFTLTISSLQPEDFATYYCQQYINYPLTFGGGTKVEIKRTVAAPSVFIFPPSDEQLKSGTASVVCLLNNFYPREAKVQWKVDNALQSGNSQESVTEQDSKDSTYSLSSTLTLSKADYEKHKVYACEVTHQGLSSPVTKSFNRGEC
notes: mAbtyrin: R2BS29 FN3 domain and linker at the N-terminus of the heavy chain of OX40SF2IgG2sigma; also called mAbtyrin
B2: OX40SF2IgG2sigma_R2BS29_LC-C (bispecific antibody)
heavy: QVQLVQSGAEVKKPGSSVKVSCKASGYTFKDYTMHWVRQAPGQGLEWIGGIYPNNGGSTYNQNFKDRVTLTADKSTSTAYMELSSLRSEDTAVYYCARMGYHGPHLDFDVWGQGTTVTVSSASTKGPSVFPLAPCSRSTSESTAALGCLVKDYFPEPVTVSWNSGALTSGVHTFPAVLQSSGLYSLSSVVTVPSSNFGTQTYTCNVDHKPSNTKVDKTVERKCCVECPPCPAPPAAASSVFLFPPKPKDTLMISRTPEVTCVVVDVSAEDPEVQFNWYVDGVEVHNAKTKPREEQFNSTFRVVSVLTVLHQDWLNGKEYKCKVSNKGLPSSIEKTISKTKGQPREPQVYTLPPSREEMTKNQVSLTCLVKGFYPSDIAVEWESNGQPENNYKTTPPMLDSDGSFFLYSKLTVDKSRWQQGNVFSCSVMHEALHNHYTQKSLSLSPGK
light: DIQMTQSPSSLSASVGDRVTITCKASQDVGAAVAWYQQKPGKAPKLLIYWASTRHTGVPSRFSGSGSGTDFTLTISSLQPEDFATYYCQQYINYPLTFGGGTKVEIKRTVAAPSVFIFPPSDEQLKSGTASVVCLLNNFYPREAKVQWKVDNALQSGNSQESVTEQDSKDSTYSLSSTLTLSKADYEKHKVYACEVTHQGLSSPVTKSFNRGECGGGGSGGGGSGGGGSGGGGSMLPAPKNLVVSRVTEDSARLSWTAPDAAFDSFPIYYWEYRVGGEAIVLTVPGSERSYDLTGLKPGTEYFVYINGVKGGEESRPLSAIFTT
notes: mAbtyrin: linker and R2BS29 FN3 domain at the C-terminus of the light chain of OX40SF2IgG2sigma; also called mAbtyrin
B3: OX40SF2IgG2sigma_R2BS29_LC-N (bispecific antibody)
heavy: B2 heavy
light: LPAPKNLVVSRVTEDSARLSWTAPDAAFDSFPIYYWEYRVGGEAIVLTVPGSERSYDLTGLKPGTEYFVYINGVKGGEESRPLSAIFTTGGGGSGGGGSGGGGSGGGGSDIQMTQSPSSLSASVGDRVTITCKASQDVGAAVAWYQQKPGKAPKLLIYWASTRHTGVPSRFSGSGSGTDFTLTISSLQPEDFATYYCQQYINYPLTFGGGTKVEIKRTVAAPSVFIFPPSDEQLKSGTASVVCLLNNFYPREAKVQWKVDNALQSGNSQESVTEQDSKDSTYSLSSTLTLSKADYEKHKVYACEVTHQGLSSPVTKSFNRGEC
notes: mAbtyrin: R2BS29 FN3 domain and linker at the N-terminus of the light chain of OX40SF2IgG2sigma; also called mAbtyrin

What follows are binders tested against T1, human FcγRIIB (NM_004001) expressed on … (assay: flow cytometry; Expi293F cells transfected with FcγRIIB).
Procedure: (§1) Plasmids expressing cDNAs encoding human FcγRI (NM_000566) (SEQ ID NO: 44), FcγRIIA (NM_021642) (SEQ ID NO: 2), FcγRIIB (NM_004001) (SEQ ID NO: 3), and FcγRIIIA (NM_000569) (SEQ ID NO: 45) (Origene) were transiently transfected into Expi293F cells by ExpiFectamine293 transfection kit (Life Technologies). Flow cytometry assays were performed 48 h after transfection.
(§2) 2×10⁵ cells per well were seeded in 96-well plate and blocked in BSA Stain Buffer (BD Biosciences, San Jose, USA) for 30 min at 4° C. Cells were incubated with test mAbtyrin on ice for 1.5 h at 4° C. After being washed twice with BSA stain buffer, the cells were incubated with R-PE labeled anti-human or anti-mouse IgG secondary antibody (Jackson Immunoresearch Laboratories) for 45 min at 4° C. The cells were washed twice in stain buffer and then resuspended in 150 μL of Stain Buffer containing 1:200 diluted DRAQ7 live/dead stain (Cell Signaling Technology, Danvers, USA). PE and DRAQ7 signals of the stained cells were detected by Miltenyi MACSQuant flow cytometer (Miltenyi Biotec, Auburn, USA) using B2 and B4 channel respectively. Live cells were gated on DRAQ7 exclusion and the geometric mean fluorescence signals were determined for at least 10,000 live events collected. FlowJo software (Tree Star) was used for analysis. Data was plotted as the logarithm of antibody concentration versus mean fluorescence signals. Nonlinear regression analysis was performed by GraphPad Prism 6 (GraphPad Software, Inc.) and EC₅₀ values were calculated.

Point of comparison: B3, EC50 1.02 µg/mL. Against it:
- B1 — within 1.5-fold, 1.01 µg/mL
- B2 — within 1.5-fold, 0.941 µg/mL

What follows are binders tested against T6, human FcγRIIIA (NM_000569) expressed on cells (human, UniProt P08637 17-254) (assay: flow cytometry; Expi293F cells transfected with FcγRIIIA).
T6 construct: Transiently expressed on Expi293F cells; also used here for FcγRIIIA on the engineered effector cells of the ADCC reporter bioassay (Promega); also called FcγIIIA
Procedure: as §1, §2

T6 sequence (P08637 17-254 limits assumed): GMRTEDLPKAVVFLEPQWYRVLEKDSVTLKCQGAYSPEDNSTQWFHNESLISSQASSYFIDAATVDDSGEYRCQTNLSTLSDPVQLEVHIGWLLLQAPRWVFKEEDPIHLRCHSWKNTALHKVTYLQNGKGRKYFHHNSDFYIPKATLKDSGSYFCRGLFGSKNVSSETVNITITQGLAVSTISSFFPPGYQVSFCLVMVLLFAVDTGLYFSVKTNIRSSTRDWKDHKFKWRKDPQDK

B1 and B2 cannot be ordered by EC50: over 10 µg/mL for the first, over 10 µg/mL for the second.

B3 was tested, and the EC50 was over 10 µg/mL.

These binders were tested against T2, human OX40 expressed on HEK-Blue: OX40 … (assay: flow cytometry; HEK-Blue: OX40 cells).
How it was run: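 HEK-Blue Null 1 cells stably transfected with human OX40 were blocked, then incubated with mAbtyrin for 1.5 h at 4 °C. Binding was detected with a PE anti-human IgG F(ab′)₂ secondary, gating on DRAQ7-excluding live cells and taking geometric mean fluorescence. EC50 came from nonlinear regression versus log antibody concentration.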

Point of comparison: B2, EC50 0.196 µg/mL. Against it:
- B1 — within 1.5-fold, 0.161 µg/mL
- B3 — 2.2-fold higher, 0.431 µg/mL

Each binder was assayed against T1, human FcγRIIB (NM_004001) expressed on … (assay: cell-based or functional assay).

Point of comparison: B3, “% activity at 1 µg/ml with Raji cells (HEK-Blue: OX40 NF-κB reporter)” value 11%. Against it:
- B1 — lower, 7%
- B2 — higher, 76%

The binders below were run against T3, human FcγRIIA (NM_021642) expressed on … (assay: cell-based or functional assay).

Point of comparison: B3, “ADCP EC50” value 8.9 ng/mL. Against it:
- B1 — within 1.5-fold, 12 ng/mL
- B2 — 1.9-fold higher, 16.5 ng/mL

Each binder was assayed against T6, human FcγRIIIA (NM_000569) expressed on … (assay: cell-based or functional assay).

Point of comparison: B2, “ADCC (fold activation) at 1 µg/ml” value 1 fold. Against it:
- B1 — the same, 1 fold
- B3 — the same, 1 fold

Each binder was assayed against T7, human FcγRI (NM_000566) expressed on cells (human, UniProt P12314 16-374) (assay: flow cytometry; Expi293F cells transfected with FcγRI).
T7 construct: Transiently expressed on Expi293F cells
Procedure: as §1, §2

T7 sequence (P12314 16-374 limits assumed): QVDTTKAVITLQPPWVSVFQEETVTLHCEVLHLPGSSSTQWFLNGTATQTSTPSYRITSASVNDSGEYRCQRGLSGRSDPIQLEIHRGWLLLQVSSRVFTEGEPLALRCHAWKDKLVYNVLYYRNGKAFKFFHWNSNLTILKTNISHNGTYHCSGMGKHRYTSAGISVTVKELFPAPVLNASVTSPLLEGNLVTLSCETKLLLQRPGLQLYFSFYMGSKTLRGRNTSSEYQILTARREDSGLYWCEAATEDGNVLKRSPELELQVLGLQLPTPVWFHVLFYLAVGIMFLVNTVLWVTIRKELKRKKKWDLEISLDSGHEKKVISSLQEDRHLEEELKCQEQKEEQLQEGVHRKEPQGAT

B1 and B2 cannot be ordered by EC50: over 10 µg/mL for the first, over 10 µg/mL for the second.

For B3, the EC50 was over 10 µg/mL.

Each binder was assayed against T4, FcγRIIA protein (assay: cell-based or functional assay).

Point of comparison: B1, “IFNγ production by activated CD4 T cells, plate-coated FcγRIIA” value 89 pg/mL. Against it:
- B2 — 1.7-fold higher, 153 pg/mL
- B3 — within 1.5-fold, 103 pg/mL

Point of comparison: B1, “TNFα production by activated CD4 T cells, plate-coated FcγRIIA” value 28 pg/mL. Against it:
- B2 — within 1.5-fold, 30 pg/mL
- B3 — within 1.5-fold, 29 pg/mL

The binders below were run against T5, FcγRIIB protein (assay: cell-based or functional assay).

Point of comparison: B2, “IFNγ production by activated CD4 T cells, plate-coated FcγRIIb” value 89 pg/mL. Against it:
- B1 — within 1.5-fold, 76 pg/mL
- B3 — within 1.5-fold, 72 pg/mL

Point of comparison: B3, “TNFα production by activated CD4 T cells, plate-coated FcγRIIb” value 29 pg/mL. Against it:
- B1 — the same, 29 pg/mL
- B2 — within 1.5-fold, 30 pg/mL

Each binder was assayed against T3, human FcγRIIA (NM_021642) expressed on … (assay: flow cytometry; Expi293F cells transfected with FcγRIIA).
Procedure: as §1, §2

Point of comparison: B3, EC50 0.046 µg/mL. Against it:
- B1 — within 1.5-fold, 0.042 µg/mL
- B2 — within 1.5-fold, 0.054 µg/mL

Each binder was assayed against T1, human FcγRIIB (NM_004001) expressed on … (assay: flow cytometry; Raji cells (express predominantly FcγRIIB)).
Procedure: as §2
Raji cell is a cell line derived from B cells that express predominantly FcγRIIB. The binding of mAbtyrins on Raji cells were investigated by flow cytometry assay described for testing mAbtyrin binding to FcγR. Binding of the mAbtyrins were detected by flow cytometry using a PE-labeled Goat F(ab′) against Human IgG(γ).

Point of comparison: B2, EC50 3.44 µg/mL. Against it:
- B1 — 2.9-fold lower, 1.2 µg/mL
- B3 — within 1.5-fold, 3.37 µg/mL
